Among the data in the Human Domainome abundance scans (Beltran et al. 2025) are abundance fitness values, retold here.

B1: Transcription intermediary factor 1-beta, residues 620 to 671; numbered along this chain, Q13263 (parent)
chain: TLDDSATICRVCQKPGDLVMCNQCEFCFHLDCHLPALQDVPGEEWSCSLCHV

± gives the uncertainty stated by the source.

This series covers variants of B1. The series is described as follows: abundance fitness (aPCA) (normalised: wild type 0, dead -1); higher = more abundant; growth selection in yeast, the domain comes from the species named. The conditions noted are these: Homo sapiens.
As to L30F, the abundance fitness is -0.609 ± 0.19.
For L30M the value was -0.299 ± 0.16; for L30A, -0.116 ± 0.16.
The same measure for L30T: -0.292 ± 0.19; for L30G: -0.375 ± 0.12.
For the variant L30P, the abundance fitness is -0.139 ± 0.17.
For L30S the value was -0.145 ± 0.13; for L30H, -0.194 ± 0.19.
As for L30N, the abundance fitness is -0.264 ± 0.16.
For L30E the value was -0.196 ± 0.17.
For L30W the value was -0.271 ± 0.12; for L30D, -0.755 ± 0.2.
As for L30K, the abundance fitness was -0.312 ± 0.24.
The same measure for L30Q: -0.432 ± 0.27; for L30R: -0.02 ± 0.098.
The same measure for L30I: -0.479 ± 0.22; for L30C: -0.135 ± 0.16.
V40M: the abundance fitness is -0.213 ± 0.22.
For V40A the value was -0.323 ± 0.14.
The same measure for V40S: -0.121 ± 0.11; for V40Y: -0.121 ± 0.22; for V40W: -0.101 ± 0.14.
The same measure for V40L: -0.221 ± 0.11.
As for V40K, the abundance fitness is -0.221 ± 0.35.
Regarding V40H, the abundance fitness was -0.361 ± 0.24.
The same measure for V40N: -0.218 ± 0.2; for V40D: -0.02 ± 0.15.
For V40E, the abundance fitness is -0.403 ± 0.17.
The same measure for V40G: -0.301 ± 0.1; for V40F: 0.01 ± 0.12.
Turning to V40Q, the abundance fitness is -0.383 ± 0.21.
The same measure for V40P: 0.264 ± 0.19.
In the case of V40I, the abundance fitness was -0.401 ± 0.23.
For V40C the value was -0.401 ± 0.17.
As to V40R, the abundance fitness is 0.166 ± 0.098.
The same measure for D31V: -0.254 ± 0.093; for D31N: 0.175 ± 0.12.
For D31H, the abundance fitness is -0.024 ± 0.15.
As to D31P, the abundance fitness was -0.175 ± 0.16.
With D31F, the abundance fitness was -0.558 ± 0.16.
The same measure for D31K: -0.528 ± 0.2.
The same measure for D31E: -0.202 ± 0.14; for D31I: -0.501 ± 0.18.
For D31M the value was -0.365 ± 0.17; for D31A, -0.257 ± 0.12.
In the case of D31C, the abundance fitness was -0.709 ± 0.2.
The same measure for D31W: -0.921 ± 0.32; for D31T: -0.308 ± 0.12.
For the variant D31S, the abundance fitness was -0.317 ± 0.11.
The same measure for D31Q: 0.04 ± 0.21.
On to D31R, for which the abundance fitness was -0.324 ± 0.12.
For D31G the value was -0.004 ± 0.1; for H33C, 0.217 ± 0.14; for H33N, -0.139 ± 0.17.
The same measure for H33R: -0.109 ± 0.095; for H33A: -0.013 ± 0.1; for H33M: -0.205 ± 0.15.
For the variant H33I, the abundance fitness was -0.325 ± 0.23.
For H33W the value was -0.444 ± 0.13; for H33Y, -0.294 ± 0.14; for H33E, 0.2 ± 0.15.
For H33G the value was -0.159 ± 0.083; for H33S, 0.012 ± 0.1.
Turning to H33V, the abundance fitness was found to be 0.033 ± 0.098.
Take H33T: the abundance fitness is -0.235 ± 0.14.
H33Q: the abundance fitness was 0.042 ± 0.15.
The same measure for H33K: -0.218 ± 0.17.
Consider H33P, for which the abundance fitness is -0.344 ± 0.14.
For H33D the value was 0.086 ± 0.12.
The same measure for H33L: -0.117 ± 0.098; for C32S: -0.507 ± 0.13.
As for C32D, the abundance fitness was -0.683 ± 0.18.
In the case of C32V, the abundance fitness is -1.03 ± 0.17.
The same measure for C32F: -0.959 ± 0.18; for C32E: -0.871 ± 0.24.
As for C32Q, the abundance fitness is -0.904 ± 0.26.
For C32Y the value was -0.45 ± 0.15.
C32L: the abundance fitness was -0.925 ± 0.12.
The same measure for C32M: -0.952 ± 0.16; for C32I: -0.911 ± 0.2.
The same measure for C32P: -0.454 ± 0.16; for C32A: -0.545 ± 0.14.
The same measure for C32N: -0.528 ± 0.25.
As to C32H, the abundance fitness was -0.501 ± 0.22.
The same measure for C32G: -0.652 ± 0.11; for C32T: -0.937 ± 0.18; for C32K: -0.795 ± 0.17.
Turning to C32R, the abundance fitness was -0.704 ± 0.11.
In the case of C32W, the abundance fitness is -0.923 ± 0.18.
The same measure for L34T: -0.065 ± 0.17; for L34H: 0.157 ± 0.17; for L34A: 0.164 ± 0.13.
The same measure for L34C: 0.274 ± 0.094; for L34I: -0.305 ± 0.17; for L34P: 0.036 ± 0.18.
For L34V the value was 0.062 ± 0.095; for L34F, 0.03 ± 0.15; for L34Q, 0.05 ± 0.15.
With L34E, the abundance fitness was 0.188 ± 0.13.
For L34D the value was 0.325 ± 0.14; for L34N, 0.543 ± 0.15; for L34Y, 0.062 ± 0.15.
Regarding L34G, the abundance fitness amounted to 0.098 ± 0.08.
Take L34W: the abundance fitness is -0.328 ± 0.11.
For L34S the value was 0.283 ± 0.093; for L34K, 0.13 ± 0.15; for E25V, -0.493 ± 0.11.
The same measure for E25Q: -0.077 ± 0.19; for E25M: -0.286 ± 0.28; for E25W: -0.322 ± 0.13.
For E25R the value was -0.136 ± 0.12.
Turning to E25N, the abundance fitness was -0.822 ± 0.39.
The same measure for E25T: -0.024 ± 0.12.
For E25Y the value was -0.061 ± 0.19; for E25P, -0.66 ± 0.24; for E25L, -0.134 ± 0.1.
With E25S, the abundance fitness was 0.059 ± 0.11.
Q38V: the abundance fitness is -0.132 ± 0.099.
For Q38G the value was -0.181 ± 0.1; for Q38H, -0.279 ± 0.2.
Q38I: the abundance fitness is 0.079 ± 0.15.
Take Q38P: the abundance fitness is -0.437 ± 0.15.
For Q38M the value was -0.443 ± 0.15.
For Q38E the value was -0.434 ± 0.16; for Q38T, -0.345 ± 0.13; for Q38L, -0.227 ± 0.09.
The same measure for Q38F: -0.39 ± 0.14; for Q38Y: -0.417 ± 0.17; for Q38W: -0.482 ± 0.12.
As for Q38N, the abundance fitness was determined as 0.082 ± 0.2.
Q38S: the abundance fitness is -0.295 ± 0.099.
For Q38C, the abundance fitness is -0.401 ± 0.16.
The same measure for Q38R: 0.023 ± 0.091; for Q38A: -0.02 ± 0.1.
For Q38K the value was -0.18 ± 0.17; for A36Y, -0.499 ± 0.2; for A36H, -0.168 ± 0.19.
As for A36E, the abundance fitness came to 0.034 ± 0.13.
A36R: the abundance fitness was 0.058 ± 0.11.
A36I: the abundance fitness was -0.449 ± 0.19.
For A36Q, the abundance fitness was -0.633 ± 0.32.
Consider A36T, for which the abundance fitness is -0.161 ± 0.17.
In the case of A36C, the abundance fitness was -0.713 ± 0.18.
For A36L the value was -0.173 ± 0.11; for A36V, 0.06 ± 0.093; for A36D, -0.394 ± 0.16.
The same measure for A36K: -0.183 ± 0.15.
The same measure for A36S: 0.079 ± 0.11; for A36G: -0.116 ± 0.087.
Consider A36N, for which the abundance fitness was -0.384 ± 0.31.
For A36P the value was 0.077 ± 0.15; for A36W, -0.527 ± 0.17; for P41F, -0.439 ± 0.15.
Regarding P41E, the abundance fitness was -0.073 ± 0.14.
P41G: the abundance fitness is -0.202 ± 0.11.
Take P41R: the abundance fitness is -0.26 ± 0.096.
For P41Q, the abundance fitness was -0.204 ± 0.17.
For P41A the value was -0.368 ± 0.13; for P41V, -0.254 ± 0.11; for P41C, -0.242 ± 0.14.
With P41K, the abundance fitness was -0.645 ± 0.25.
On to P41W, for which the abundance fitness is -0.258 ± 0.2.
On to P41T, for which the abundance fitness is -0.619 ± 0.22.
Regarding P41I, the abundance fitness was -0.302 ± 0.18.
The same measure for P41S: -0.374 ± 0.14.
For P41N the value was -0.112 ± 0.17.
The same measure for P41D: -0.245 ± 0.21.
